From PMC9287321 (Scientific Reports, 2022)

Biological target: T1, AFP_(158–166) peptide complexed with HLA-A*02:01 (Homo sapiens, HLA-A*02:01)
T1 construct: HLA-A*02:01 heavy chain, soluble recombinant; β2-microglobulin, recombinant; alpha-fetoprotein (AFP) peptide, residues 158–166; also called AFP/HLA-A*02; AFP/HLA-A*02 complex; copies: + +
Assay: SPR; Biacore T200, CM5 chip; AFP/HLA-A*02 amine coupled (100–200 RU); kinetic titration, five injections of increasing TCRm, 100 μL/min, 25 °C; 1:1 binding model; mean of three experiments
Conditions: both partners purified

B1: anti-AFP TCRm antibody, Fab fragment (Fab, V domains shown)
VH: EVQLVQSGAEVKKPGESLTISCKASGYSFPNYWITWVRQMSGGGLEWMGRIDPGDSYTTYNPSFQGHVTISIDKSTNTAYLHWNSLKASDTAMYYCARYYVSLVDIWGQGTLVTVSS
VL: QSVLTQPASVSGSPGQSITISCTGTSSDVGGYNYVSWYQQHPGKAPKLMIYDVNNRPSEVSNRFSGSKSGNTASLTISGLQAEDEADYYCSSYTTGSRAVFGGGTKLTVL
notes: Fab cut by papain from human IgG1; also called TCR mimic antibody; TCRm Fab fragment
Kd: 7 nM
